Assay results published in the supplement of paper PMC7877785.
± gives the uncertainty stated by the source.

Test: self-splicing fitness, log relative to wild type (ln ratio); higher = more splicing; Tetrahymena group I intron in knt gene, E. coli kanamycin selection, DiMSum; sequences stand for … in CUCUCU…GGAGGGAAAAGUUAUCAGGCAUGCACCUGGUAGCUAGUCUUUAAACCAAUAGAUUGCAUCGGUUUAAAAGGCAAGACCGUCAAAUUGCGGGAAAGGGGUCAACAGCCGUUCAGUACCAAGUCUCAGGGGAAACUUUGAGAUGGCCUUGCAAAGGGUAUGGUAAUAAGCUGACGGACAUGGUCCUAACCACGCAGCCAAGUCCUAAGUCAACAGAUCUUCUGUUGAUAUGGAUGCAGUUCACAGACUAAAUGUCGGUCGGGGAAGAUGUAUUCUUCUCAUAAGAUAUAGUCGGACCUCUCCUUAAUGGGAGCUAGCGGAUGAAGUGAUGCAACACUGGAGCCGCUGGGAACUAAUUUGUAUGCGAAAGUAUAUUGAUUAGUUUUGGAGUACUCGUGGUCG
Method in brief: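 Six replicate transformations of E. coli BL21(DE3) with a pET-22b(+) library were grown overnight at 37°C or 30°C. The library randomised all eight P1ex-region intron nucleotides, the intron lying in the knt kanamycin-resistance gene, and plates were LB agar with or without 25 μg/mL kanamycin plus 100 μg/mL carbenicillin, 50 μM IPTG and 0.2% rhamnose. Pooled colonies were amplicon-sequenced on an Illumina HiSeq 2500, and fitness is the DiMSum error-weighted combination of wild-type-normalised replicate fold changes, kanamycin versus none.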

Sequence	self-splicing fitness (ln) (30 °C)	self-splicing fitness (ln) (37 °C)
GGCGAGCAAUAUUACGCGAC	-2.61 ± 0.42	
GCGUAGCAAUAUUACGGAAU	-2.67 ± 0.33	-0.8 ± 0.2
CACCAGCAAUAUUACGGGGG	-3.36 ± 0.11	-2.64 ± 0.18
UAUAAGCAAUAUUACGCUCA	-0.3 ± 0.14	0.688 ± 0.21
GCGUAGCAAUAUUACGGCUC	0.371 ± 0.11	0.776 ± 0.12
UUCCAGCAAUAUUACGCCGG	-3.4 ± 0.33	-2.98 ± 0.48
ACCGAGCAAUAUUACGCUUC	-2.06 ± 0.36	
UAGGAGCAAUAUUACGGUAG	-3.52 ± 0.17	-1.56 ± 0.13
UCUAAGCAAUAUUACGCCCU	-2.09 ± 0.24	-1.78 ± 0.25
CCUAAGCAAUAUUACGGAUU	-4.68 ± 0.28	-2.46 ± 0.23
AAAAAGCAAUAUUACGAACU	-0.488 ± 0.07	-0.079 ± 0.087
CGCUAGCAAUAUUACGAGAU	-3.86 ± 0.19	-3.36 ± 0.23
GCACAGCAAUAUUACGUCCG	-0.402 ± 0.09	-0.201 ± 0.11
GUAAAGCAAUAUUACGGUUU	-0.83 ± 0.055	0.0852 ± 0.077
CUAUAGCAAUAUUACGACAC	-2.95 ± 0.34	-1.88 ± 0.28
CGGUAGCAAUAUUACGGCGU	-2.03 ± 0.14	-0.594 ± 0.13
UCGAAGCAAUAUUACGUGAA	-2.53 ± 0.13	-1.13 ± 0.12
CAUGAGCAAUAUUACGUUCA	-3.67 ± 0.26	-2.29 ± 0.17
GCGUAGCAAUAUUACGUUAG	-3.92 ± 0.22	-2.47 ± 0.23
AAGGAGCAAUAUUACGCGAG	-2.86 ± 0.19	-2.23 ± 0.19

Sequence	self-splicing fitness (ln) (30 °C)	self-splicing fitness (ln) (37 °C)
ACUUAGCAAUAUUACGACCU	-0.101 ± 0.16	-0.219 ± 0.2
AGCAAGCAAUAUUACGGUUC	-3.75 ± 0.17	-3.42 ± 0.25
GUCAAGCAAUAUUACGGACU	-4.38 ± 0.39	-2.72 ± 0.26
UACGAGCAAUAUUACGCGCU		-3.38 ± 0.31
UACGAGCAAUAUUACGCCCA	-2.24 ± 0.27	-1.02 ± 0.29
CUUAAGCAAUAUUACGCCGU	-3.13 ± 0.34	-1.88 ± 0.37
CAUAAGCAAUAUUACGGUGA	-3.65 ± 0.27	-2.36 ± 0.23
GGUUAGCAAUAUUACGCGGC	-2.62 ± 0.29	
AGCUAGCAAUAUUACGAAAG	-3.5 ± 0.19	-2.77 ± 0.25
UAAGAGCAAUAUUACGGACA	-1.78 ± 0.25	-2.31 ± 0.35
AUGUAGCAAUAUUACGGUCA	-0.793 ± 0.14	-0.745 ± 0.13
UUCGAGCAAUAUUACGGCCU	-3.17 ± 0.33	-2.84 ± 0.35
AACCAGCAAUAUUACGGUGU	-1.87 ± 0.061	-2.56 ± 0.11
UUUUAGCAAUAUUACGGUUU	-3.26 ± 0.47	-0.0249 ± 0.25
GCCUAGCAAUAUUACGUUCU	-1.96 ± 0.14	-0.354 ± 0.12
AAACAGCAAUAUUACGAGUC	-3.55 ± 0.14	-2.38 ± 0.14
ACUUAGCAAUAUUACGCCGA	-2.94 ± 0.21	-1.35 ± 0.15
GUCCAGCAAUAUUACGACAG	-3.57 ± 0.36	-1.93 ± 0.41
AACAAGCAAUAUUACGUAAU	-1.98 ± 0.074	-0.78 ± 0.08
